Source: paper PMC3020742 (The Journal of Biological Chemistry, 2010)

B1: Renilla luciferase-tagged IRAK4 DD (residues 1-106) (domain or fragment)
chain: MNKPITPSTYVRCLNVGLIRKLSDFIDPQEGWKKLAVAIKKPSGDDRYNQFHIRRFEALLQTGKSPTSELLFDWGTTNCTVGDLVDLLIQNEFFAPASLLLPDAVP
B2: MyD88 R98C DD, purified from bacteria (domain or fragment)
chain: SLPLAALNMRVRRRLSLFLNVRTQVAADWTALAEEMDFEYLEIRQLETQADPTGRLLDAWQGRPGASVGRLLELLTKLGCDDVLLELGPSI

What was measured:
[1] = biological target: MyD88 R98C DD-ID (residues 1-156), Protein A-tagged (LUMIER) (human, UniProt Q99836 1-156, R98C); experiment: LUMIER
Sequence of MyD88 R98C DD-ID (residues 1-156), Protein A-tagged (LUMIER) (Q99836 1-156 R98C): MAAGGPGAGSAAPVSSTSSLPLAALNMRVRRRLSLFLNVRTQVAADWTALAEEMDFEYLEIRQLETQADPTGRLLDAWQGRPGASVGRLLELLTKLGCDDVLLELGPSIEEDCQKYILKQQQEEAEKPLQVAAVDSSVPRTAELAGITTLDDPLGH

[2] = biological target: MyD88 S34Y DD-ID (residues 1-156), Protein A-tagged (LUMIER) (human, UniProt Q99836 1-156, S34Y); experiment: LUMIER
Sequence of MyD88 S34Y DD-ID (residues 1-156), Protein A-tagged (LUMIER) (Q99836 1-156 S34Y): as the sequence (Q99836 1-156 R98C) above, with S34Y, C98R counted along it

[3] = biological target: the molecule itself; experiment: SEC

| Binder | fold reduction of binding against WT DD [1] [fold] | fold reduction of binding against WT DD [2] [fold] | stoichiometry N [3] |
| --- | --- | --- | --- |
| B1 | > 10 | > 10 | – |
| B2 | – | – | 2 |
